The DeepSol protein solubility set

assay: soluble on expression in E. coli; label from the status in PepcDB or PDB records

Sequence | soluble on expression in E. coli
MVLADLGRKIRNAIGKLGQSTVINEGELDLMLKEVCTALIESDVHIRLVKQLKDNVKKAINFEEIVGGANKRRYIQKTVFNELLKLVDPGVTPFTPTKGRRNVFMFVGLQGSGKTTTCTKMAYYYQRKGWKTCLICADTFRAGAFDQLKQNATKARIPFYGSYSEIDPVKIAAEGVEKFTQEGFEIIIVDTSGRHKQEASLFEEMLQVSNAVTPDNVVFVMDASIGQACEAQARAFSQTVDVASVIITKLDSHAKGGGALSAVAVTKSPVIFIGTGEHIDDFEIFKPKSFVQKLLGMGDIAGLVDMVNDIGIQDNKELVGRLKQGQFTLRDMYEQFQNIMKMGPFSQIMGMIPGFGSEFMTKGNEQESVNRLKRMMTVMDSMSDKELDHPKASELFTKEPNRVARVARGSGSHQQEVRDLLAQYKKFSDVVKKIGSIKGLFNGKNGDINPKNMNPAKMAQLNQQMAKMMDPRVLQQMGGMGGLQNMMQQMARAGKM | not soluble
RVDADNTALVDLWERSVRATHDFLSEADIVELYPQVRDLYLPAVEVWVLVDDDGVAQGFIGLNQAHVEMLFVEPGLRGRGIGRRLLDHARATWPRLSVDVNEQNPQACGFYRHYGFRQTGRSATDSAGRPFPLLHMSL | not soluble
GPGSMASHAEGRLLRRSVPYVESWIAELTPKPVAPAAGAAPAPKGKAKGGTASTGTENATPMSRCCFAVGKVLEVSRHPESEKLYIEKIDLGAELNMLSNNEPRTILSGLQEFVKEEDFVNRLVLVIANLEPRKIGGIPSAGMVLCASTGEDPHDPASAGQGERKVVLLDIPEGTAVGERVVFEGHDMPYEPVLKKKLAKNFEEVMKDVRSSADGEVCWQGKPFQTSAGVIKASLCNARIS | soluble
MAIVPFKRDPTFYPSPKMAMKAPPEDLAYVACLYTGTGINRADFIAVVDVNPKSETYSKIVHKVELPYINDELHHFGWNACSSALCPNGKPNIERRFLIVPGLRSSRIYIIDTKPNPREPKIIKVIEPEEVKKVSGYSRLHTVHCGPDAIYISALGNEEGEGPGGILMLDHYSFEPLGKWEIDRGDQYLAYDFWWNLPNEVLVSSEWAVPNTIEDGLKLEHLKDRYGNRIHFWDLRKRKRIHSLTLGEENRMALELRPLHDPTKLMGFINMVVSLKDLSSSIWLWFYEDGKWNAEKVIEIPAEPLEGNLPEILKPFKAVPPLVTDIDISLDDKFLYLSLWGIGEVRQYDISNPFKPVLTGKVKLGGIFHRADHPAGHKLTGAPQMLEISRDGRRVYVTNSLYSTWDNQFYPEGLKGWMVKLNANPSGGLEIDKEFFVDFGEARSHQVRLSGGDASSDSYCYP | soluble
MQMLDRLESEILADRVSEESRRWLASCGLTVEQMKNQMDPVYTPARKIHLYHCDHRGLPLALISTEGATAWCAEYDEWGNLLSDENPHHLQQLIRLPGQQYDEESGLYYNRHRYYDPLLGRYITQDPIGLKGGWNFYQYPLNPVINVDPQGLVDINLYPESDLIHSVADEINIPGVFTIGGHGTPTSIESATRSIMTAKDLAYLIKFDGNYKDGMTVWLFSCNTGKGQNSFASLEHHHHHH | not soluble
MPADRVAFPPTLIGIELDPRQGLSKQLYEILRRQILDGRLSSGMRLPASRDLAKSLAISRNSVMRAFDQLYAEGFIEGRVGDGTYVAQLAGRHAALQRNAPGKLSTNLPTGLHTGLCTGLSTFAVENTQNLLNQVIHNPALQRVEKHHLNEPPDDRPKAFRVGVPAFDLFPFALWGKLYASFWRKPNLDQLGYGAAAGEWRLRELVAAYLRSSRGLGCTAEQIVITSGAQHAISLCAQLLVTPGEGVAVENPGYRAAGHAFALAGARLQGVAVDSEGMRCADLEQTDCRLAYVTPSHQYPTGVVMSLARRLELLAWAEKNQSWIVEDDYDGEYRYSGSPLAPLAALDQNGRVLYVGTFGKIVFPALRLGYLVLPEHLVRPFSQRKAVDMRHTEIGVQAVMAQFIAQGHFQRHIRRMRRAALSRRDALLAGWPDNVPGCAAMPKVVAGLHVMVKVDSVAREQALIAKARSVGVEMSPLSGYWLSDSDEPVDNRAGLVLGFAAVPEPAIADALNRLRMVWSE | not soluble
MTAPRKTRTEVITTVLNLERTLAQTVLGINDENLRVLDNQIDCDIHVRGTHVELTGPAHEVSRASKIFEELQAIARRGHVISPETVKNVISMINVETPQTVSEILTGDILARRGKVIRPKTLGQKHYVDAIDTNTIVFGLGPAGSGKTYLAMAKAVQALQSKQVSRIILTRPAVEAGEKLGFLPGTLNEKIDPYLRPLHDALRDMVEPEVIPKLMEAGIVEVAPLAYMRGRTLNDAFVILDEAQNTTPAQMKMFLTRLGFGSKMVVTGDITQVDLPGGQKSGLRLVRHILRGVDDVHFSELTSSDVVRHQLVGHIVDAYEDYEEREARELKRKRQETRP | not soluble
MAPTVERKNINLAPLKAAGVPIFFIVGGPGSGKGTQCDKIVAKYGLTHLSSGDLLRDEVKSGSPRGAQLTAIMESGALVPLEVVLDLVKEAMLKAIEKGSKGFLIDGYPREVAQGQQFESEIQEAKLVLFFDVAEETLVKRLLHRAQTSGRADDNADTIKKRLHTFVTSTAPVVDYYESKGKLVRINAEGSVDDIFAVVVANLDKATSKL | soluble
MGSDKIHHHHHHMSLPYKRWHYFNLIKNSLQKGCLKQQQTLTATTLKRNTIMTVIKQEDFIQSICDAFQFISYYHPKDYIDALYKAWQKEENPAAKDAMTQILVNSRMCAENNRPICQDTGIATVFLKVGMDVQWDADMSVEEMVNEGVRRAYTWEGNTLRASVLADPAGKRQNTKDNTPAVIHMSIVPGDKVEVTCAAKGGGSENKSKLAMLNPSDNIVDWVLKTIPTMGAGWCPPGILGIGIGGTPEKAVLMAKESLMSHIDIQELQEKAASGAELSTTEALRLELFEKVNALGIGAQGLGGLTTVLDVKILDYPTHAASKPIAMIPNCAATRHVEFELDGSGPVELTPPRVEDWPDLTYSPDNGKRVDVDKLTKEEVASWKTGDVLLLNGKILTGRDAAHKRLVDMLDKGEELPVDFTNRLIYYVGPVDPVGDEIVGPAGPTTATRMDKFTRQMLEQTDLLGMIGKSERGAATCEAIADNKAVYLMAVGGAAYLVAKAIKSSKVLAFPELGMEAIYEFEVKDMPVTVAVDSKGESIHATAPPQWQAKIGIIPVKS | not soluble
VLGDKEWVYLPGLKESFKARIDTGATTSSISAVDIVPFERGGQDWVKFRIEHDNIRSEELSLPVERWVRIRQSSAEEAQRRAVVVAWIQIGDLKEQTEFTLTDRTHLTYPLLLGRSFFKDVAVVDVSRHYIQPKHPSPKK | not soluble
MGSDKIHHHHHHMSLLVRAAALTNYCEVARAGGLDPLRMMFDAGISPSVLREPDLMIQVDRFGRLLQTSATLSGNESFGLSMAESRLLSNLGPVGMLIRDQATLRDALGMLMRYQSILNGAKSLAVDECGGRVIIREVLIAGSAHQPTRQRVELALGVMVRLIRQLIKPDWQPQRVCFEHPAPRDLSTHQRFFGPNVAFNCDFNGIVCAKSDLDARNPWADPAMARYAQRLIDESAAARQTTMLEDVRRTILLLLPGGRCSVEQVAENLGVVCRTVQRRLAEQGQSFSSVVNDIRVELAMRHVVESDRPFTEVATLLGFSAPSGFSRWYQTQFGCSPKESRAASAAVGERVTETPSPARSSPTVRPLSRG | not soluble
MAHHHHHHMYADDLSIIVKGQSREDAIPTANMVLKKLHAWSQENGLAISPSKCEAAWFTLSTHTESDYDREGKRPLVVAGCEIPVMTMGASRTTKLLGMDLDPRLTLNVAASKQCAASSQRISQLRCIAHKEAGPSPHDLRMFVIGYGASKLRYGSELIWAVATDSAKNEMQKTYATLARIVSGVPSTVDPESALLEANMPPLHVLCLRARLSIFENTRACQMDWMRRPPPEPPPRAVFRISPLSRDELYAFVDAYTKEYGITQSSPREERFFRSSIPPWFAASAHRVTIGVELPTDHSITEEQLIREKRRVSEEALALHSHRSWILAKSGGVDVPKSAGVGILLSSLNSSEIIEKASINCGARPCSYRTESRALLLALERLIIPRIQHRHETLLVVADSQSLLAALNKGPLSQTDWTEDQIWQRLLTLTCAGWSVRLQFFTDIVEYMLTSLRISMRRRLWRLDNTRSMESHIYGIRIC | not soluble
MGSDKIHHHHHHMSLPIIKVHWLDHSRAFRLLWLLDHLNLEYEIVPYKRDANFRAPPELKKIHPLGRSPLLEVQDRETGKKKILAESGFIFQYVLQHFDHSHVLMSEDADIADQINYYLFYVEGSLQPPLMIEFILSKVKDSGMPFPISYLARKVADKISQAYSSGEVKNQFDFVEGEISKNNGYLVDGKLSGADILMSFPLQMAFERKFAAPEDYPAISKWLKTITSEESYAASKEKARALGSNF | not soluble
MLETNVDQKSFKFKIVLLGEGCVGKSSLVLRFVENKFSCKHLSTIQASFQNKTVNVEDCQADLHIWDTAGQEKYHALGPIYYRGSNGVLLVFDITDRKSFEKVKNWVLEIKTCLGNTAEILIVGNKIDLEEERQVTRQDAEAYAESEGALYMETSAQDNVGISDAFESLTAKMIEHSRTRSTEPPSTNRSIRLIDNDEAERSKKCCR | not soluble
MTNATIAPTTTAAPVTKSVDAPTADENTPLFSPSLISPDVLAVLPADYTIRPLCRSDYKRGYLDVLRVLTTVGDINEEQWNSRYEWIRARSDEYYLLVVCDGEGRIVGTGSLVVERKFIHSLGMVGHIEDIAVEKGQQGKKLGLRIIQALDYVAEKVGCYKTILDCSEANEGFYIKCGFKRAGLEMAHYY | soluble
LSIPEDYQARLQPNRVEGSYPLVRMEFTGATVDAPLMSQISRKYNIDVSILSSDLDYAGGVKFGMMVAELFGNEQDDSAAIEYLREHNVKVEVLGYVL | soluble
MGSDKIHHHHHHMRTALLEVGLEELPASEFHSILKQLEEKSAELLKAYRVSSGSVEVFVGSRRFGVILKNLPERQEDFTEEKKGPPLNVAYDENGKPTRALEGFLRNNNASLENVVHREGYVYLSRVVEGKPVEEVLPDLFRDLVLGLNFRKPMRWGSGEHEYIRPVHWIVAMVDGRVLDLEIFGLRSSRISYGKRYHAGSIEIPDSERYYESLKKGFVISSHLERKKFVLEQIDEFEKRSSMKIERDEELIEEIVAITEYPRIVVGQFDRKYLELPEEIIVTAVKHHQRSFIAHKGTLTNTFVAFQDGPQPPENVVKGYERVINARLEDARYYFQKDLETPLEKMNEKLKEIVFQEKLGTLYDKVERIKKISQRLCEDLKLPGSFTQKVLEAASICKADIASKVVYEFPELQGVMGRIYALREGINEEIATAIEDHYSEEPQTVIGSILGIADRIDTIVGNFAIGNVPTSSKDPYGLKSKADTIFRIIRKNEWDISLEELLTFASSLVGYRLSEELETFFAGRFYQFLINELGISFDVARAVNHLWKKPLRGILSAEALQEISEKPEFQDLFVGFERVHNITKNHDSTKFDGALFEKEEEKKLMNKFYEVKEKVLKALERLNYREALQYLIELKPYIDEYFDNVFVMVKRDDLRVNRLSFLKNIDELFMMVGDMTYLVKRSQV | not soluble
GPLHMVKVALAGCPNVGKTSLFNALTGTKQYVANWPGVTVEKKEGVFTYKGYTINLIDLPGTYSLGYSSIDEKIARDYLLKGDADLVILVADSVNPEQSLYLLLEILEMEKKVILAMTAIDEAKKTGMKIDRYELQKHLGIPVVFTSSVTGEGLEELKEKIVEYAQKNTILHRMILDYGEKVESEIKKVENFLRDKKLRINPRYFALKYLSGDPEFYSEGVKLGLPELSEEERIGYRLLIAKRKREYVENVVKEAFAD | soluble
